Consider 3 molecules from paper PMC10979024 (Nature Communications, 2024).

The target of one series is T1, DvCODH (Nitratidesulfovibrio vulgaris, UniProt Q72A99).
T1 construct: gene cooS
Type of series: biochemical. As to conditions: CO-saturated 50 mM HEPES/NaOH pH 8, 2 mM DTE, 20 mM viologen, 30 °C.

Series [1] deals with the molecule itself. The series is described as follows: SEC; size exclusion chromatography of the purified enzyme; measured molecular mass compared with the theoretical mass of the dimer. A general note: Size exclusion chromatography separates by hydrodynamic size, large species first.

T1 sequence (Q72A99 1-629): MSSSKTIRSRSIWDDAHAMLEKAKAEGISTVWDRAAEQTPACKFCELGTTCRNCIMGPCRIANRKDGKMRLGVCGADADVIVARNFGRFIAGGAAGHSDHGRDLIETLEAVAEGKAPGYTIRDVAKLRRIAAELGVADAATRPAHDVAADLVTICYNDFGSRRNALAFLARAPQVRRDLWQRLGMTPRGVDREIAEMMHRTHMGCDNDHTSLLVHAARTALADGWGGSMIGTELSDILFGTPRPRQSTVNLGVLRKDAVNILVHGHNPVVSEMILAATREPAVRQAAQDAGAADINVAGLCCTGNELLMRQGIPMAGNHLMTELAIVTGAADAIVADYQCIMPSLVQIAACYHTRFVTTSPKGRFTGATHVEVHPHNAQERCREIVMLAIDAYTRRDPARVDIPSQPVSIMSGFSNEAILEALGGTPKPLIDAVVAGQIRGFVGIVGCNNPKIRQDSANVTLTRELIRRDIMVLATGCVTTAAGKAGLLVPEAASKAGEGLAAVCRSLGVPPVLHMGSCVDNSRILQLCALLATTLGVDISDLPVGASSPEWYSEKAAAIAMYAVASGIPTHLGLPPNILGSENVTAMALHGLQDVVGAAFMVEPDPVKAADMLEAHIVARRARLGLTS

For `C[n+]1ccc(-c2cc[n+](C)cc2)cc1` [MV, methyl viologen], the “CO-dependent viologen reduction, relative activity” value on DvCODH is “essential for viologen reduction using the four mediators MV, EV, BV, and diquat (DQ)”.

B1: ChCODH2 F41A (enzyme, Carboxydothermus hydrogenoformans)
chain: MAKQNLKSTDRAVQQMLDKAKREGIQTVWDRYEAMKPQCGAGETGLCCRHCLQGPCRINPFGDEPKVGICGATAEVIVARGLDRSIAAGAAGHSGHAKHLAHTLKKAVQGKAASYMIKDRTKLHSIAKRLGIPTEGQKDEDIALEVAKAALADFHEKDTPVLWVTTVLPPSRVKVLSAHGLIPAGIDHEIAEIMHRTSMGCDADAQNLLLGGLRCSLADLAGCYMGTDLADILFGTPAPVVTESNLGVLKADAVNVAVHGHNPVLSDIIVSVSKEMENEARAAGATGINVVGICCTGNEVLMRHGIPACTHSVSQEMAMITGALDAMILDYQCIQPSVATIAECTGTTVITTMEMSKITGATHVNFAEEAAVENAKQILRLAIDTFKRRKGKPVEIPNIKTKVVAGFSTEAIINALSKLNANDPLKPLIDNVVNGNIRGVCLFAGCNNVKVPQDQNFTTIARKLLKQNVLVVATGCGAGALMRHGFMDPANVDELCGDGLKAVLTAIGEANGLGGPLPPVLHMGSCVDNSRAVALVAALANRLGVDLDRLPVVASAAEAMHEKAVAIGTWAVTIGLPTHIGVLPPITGSLPVTQILTSSVKDITGGYFIVELDPETAADKLLAAINERRAGLGLPW
notes: Ni-Fe carbon monoxide dehydrogenase 2 (ChCODH2), Carboxydothermus hydrogenoformans, locus Chy_0085; site-directed variant in pET28a; source: E. coli BL21(DE3) with pRKISC, purified (Ni-NTA; size-exclusion chromatography)
Take B1: the “stoichiometry N” value in series [1] is 2.

B2: ChCODH2 wild type (carbon monoxide dehydrogenase 2 of Carboxydothermus hydrogenoformans) (enzyme)
chain: MAKQNLKSTDRAVQQMLDKAKREGIQTVWDRYEAMKPQCGFGETGLCCRHCLQGPCRINPFGDEPKVGICGATAEVIVARGLDRSIAAGAAGHSGHAKHLAHTLKKAVQGKAASYMIKDRTKLHSIAKRLGIPTEGQKDEDIALEVAKAALADFHEKDTPVLWVTTVLPPSRVKVLSAHGLIPAGIDHEIAEIMHRTSMGCDADAQNLLLGGLRCSLADLAGCYMGTDLADILFGTPAPVVTESNLGVLKADAVNVAVHGHNPVLSDIIVSVSKEMENEARAAGATGINVVGICCTGNEVLMRHGIPACTHSVSQEMAMITGALDAMILDYQCIQPSVATIAECTGTTVITTMEMSKITGATHVNFAEEAAVENAKQILRLAIDTFKRRKGKPVEIPNIKTKVVAGFSTEAIINALSKLNANDPLKPLIDNVVNGNIRGVCLFAGCNNVKVPQDQNFTTIARKLLKQNVLVVATGCGAGALMRHGFMDPANVDELCGDGLKAVLTAIGEANGLGGPLPPVLHMGSCVDNSRAVALVAALANRLGVDLDRLPVVASAAEAMHEKAVAIGTWAVTIGLPTHIGVLPPITGSLPVTQILTSSVKDITGGYFIVELDPETAADKLLAAINERRAGLGLPW
notes: Ni-Fe carbon monoxide dehydrogenase 2 (ChCODH2), Carboxydothermus hydrogenoformans, locus Chy_0085; synthesized DNA in pET28a; Carries Fe-S and Ni-Fe clusters (B, C, D); also called ChCODH2 WT; WT; source: E. coli BL21(DE3) with pRKISC, purified (Ni-NTA; size-exclusion chromatography)
Consider B2, for which, in series [1], the binding result is given as “binds”.

Usually stoichiometry N stands for the number of molecules, sites or subunits per partner or assembly.
